4 molecules from publication PMC11139983 can be followed below.

One experiment concerns the target VUN701. Kind of experiment: BRET-based β-arrestin2 recruitment competition assay (functional KB). The settings on record: 90% effective concentration of CXCL12 determined for each ACKR3 variant; parent: est. 0.0; read off a plot.
Experiment [1] concerns the target atypical chemokine receptor 3 (ACKR3) (human).
For experiment [2] the target is unchanged. The source holds these as a separate data set.

Sequence of atypical chemokine receptor 3 (ACKR3) (human) (chain, as listed by the source): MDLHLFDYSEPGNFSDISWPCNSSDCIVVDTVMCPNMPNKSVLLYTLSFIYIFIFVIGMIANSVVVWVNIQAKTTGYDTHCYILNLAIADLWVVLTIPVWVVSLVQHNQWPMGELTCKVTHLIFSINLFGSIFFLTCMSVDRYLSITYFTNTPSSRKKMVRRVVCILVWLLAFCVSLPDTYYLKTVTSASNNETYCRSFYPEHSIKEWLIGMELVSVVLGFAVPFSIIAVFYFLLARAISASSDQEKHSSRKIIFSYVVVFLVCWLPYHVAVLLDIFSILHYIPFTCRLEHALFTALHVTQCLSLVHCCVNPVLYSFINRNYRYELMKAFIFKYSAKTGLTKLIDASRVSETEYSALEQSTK

Turning to “atypical chemokine receptor 3 (ACKR3) E290A”, in the experiment with VUN701, the log10 ratio was -1.8.

As for “atypical chemokine receptor 3 (ACKR3) F285A”, the log10 ratio with VUN701 was -2.4.

Regarding “atypical chemokine receptor 3 (ACKR3) D275A”, the log10 ratio in the experiment with VUN701 was -1.8.

B1: VUN701 (VHH)
VHH: QVQLVESGGGLVQAGGSLRLSCAASGSTFSLHLMGWYRQAPGKQREVVATSGSGGDTNYADSVKGRFTISRDNDKNTVDLQMNNLKPEDTADYYCRAQQKIGRDTFRDYWGQGTQVTVSS
With B1, in experiment [1], the IC50 of inhibition of CXCL11-induced β-arrestin2 recruitment to ACKR3 (BRET, HEK293T); blocks m4 with m2 stood at 105 nM; the IC50 of inhibition of CXCL12-induced β-arrestin2 recruitment to ACKR3 (BRET, HEK293T); blocks m3 with m2 was found to be 157 nM; the KB (Cheng-Prusoff) from inhibition of CXCL11-induced β-arrestin2 recruitment to ACKR3 (BRET); blocks m4 with m2 came out at 23.3 nM; the KB (Cheng-Prusoff) from inhibition of CXCL12-induced β-arrestin2 recruitment to ACKR3 (BRET); blocks m3 with m2 stood at 9.8 nM. In addition, in experiment [1], the pKB (Cheng-Prusoff) from inhibition of CXCL11-induced β-arrestin2 recruitment to ACKR3 (BRET); blocks m4 with m2 is 8.64. This molecule also returned a KB from Schild analysis of CXCL12-induced β-arrestin2 recruitment to ACKR3 (BRET); blocks m3 with m2 in experiment [2] of 18.2 nM.
